B1: Pin1_(PPIase) (50–163) (domain or fragment, human, UniProt Q13526 50-163, looked up)
chain: GEPARVRCSHLLVKHSQSRRPSSWRQEKITRTKEEALELINGYIQKIKSGEEDFESLASQFSDCSSAKARGDLGAFSRGQMQKPFEDASFALRTGEMSGPVFTDSGIHIILRTE
B2: c-Myc_(1–88) (domain or fragment, human, UniProt P01106-1 1-88, looked up)
chain: MPLNVSFTNRNYDLDYDSVQPYFYCDEEENFYQQQQQSELQPPAPSEDIWKKFELLPTPPLSPSRRSGLCSPSYVAVTPFSLRGDNDG
B3: pSer62-c-Myc_(1–88) (domain or fragment, human, UniProt P01106-1 1-88, looked up)
chain: B2 chain
modifications: phosphoserine at 62
B4: Pin1WW (6–39) (domain or fragment, human, UniProt Q13526 6-39, looked up)
chain: KLPPGWEKRMSRSSGRVYYFNHITNASQWERPSG

What was measured:
c-Myc_(1–88) = biological target: B2; assay: SPR
full-length Pin1 (1–163) [1] = biological target: T1, full-length Pin1 (1–163) (human, UniProt Q13526 1-163); assay: SPR
full-length Pin1 (1–163) [2] = biological target: T1, full-length Pin1 (1–163); assay: ITC

T1 sequence (Q13526 whole entry): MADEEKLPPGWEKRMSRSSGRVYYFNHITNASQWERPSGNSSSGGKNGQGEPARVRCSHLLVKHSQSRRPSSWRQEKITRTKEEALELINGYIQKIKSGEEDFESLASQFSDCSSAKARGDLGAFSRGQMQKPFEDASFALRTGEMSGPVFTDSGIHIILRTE

fold weaker affinity than intact Pin1 (c-Myc_(1–88)) [fold] | Binder | further results
> 10 | B1 | –
– | B2 | Kd (full-length Pin1 (1–163) [1]): 4 µM
– | B3 | Kd (full-length Pin1 (1–163) [2]): 10 to 100 µM
> 10 | B4 | –

— paper PMC4807222 (Structure (London, England : 1993), 2015)
